Key:
[1] = target: SAF-A^CtermΔ–GFP; assay: co-IP
[2] = target: SAF-A^RGG1-7Δ–GFP (UniProt Q00839); assay: co-IP
Sequence of SAF-A^RGG1-7Δ–GFP (Q00839 whole entry, stated change not applied): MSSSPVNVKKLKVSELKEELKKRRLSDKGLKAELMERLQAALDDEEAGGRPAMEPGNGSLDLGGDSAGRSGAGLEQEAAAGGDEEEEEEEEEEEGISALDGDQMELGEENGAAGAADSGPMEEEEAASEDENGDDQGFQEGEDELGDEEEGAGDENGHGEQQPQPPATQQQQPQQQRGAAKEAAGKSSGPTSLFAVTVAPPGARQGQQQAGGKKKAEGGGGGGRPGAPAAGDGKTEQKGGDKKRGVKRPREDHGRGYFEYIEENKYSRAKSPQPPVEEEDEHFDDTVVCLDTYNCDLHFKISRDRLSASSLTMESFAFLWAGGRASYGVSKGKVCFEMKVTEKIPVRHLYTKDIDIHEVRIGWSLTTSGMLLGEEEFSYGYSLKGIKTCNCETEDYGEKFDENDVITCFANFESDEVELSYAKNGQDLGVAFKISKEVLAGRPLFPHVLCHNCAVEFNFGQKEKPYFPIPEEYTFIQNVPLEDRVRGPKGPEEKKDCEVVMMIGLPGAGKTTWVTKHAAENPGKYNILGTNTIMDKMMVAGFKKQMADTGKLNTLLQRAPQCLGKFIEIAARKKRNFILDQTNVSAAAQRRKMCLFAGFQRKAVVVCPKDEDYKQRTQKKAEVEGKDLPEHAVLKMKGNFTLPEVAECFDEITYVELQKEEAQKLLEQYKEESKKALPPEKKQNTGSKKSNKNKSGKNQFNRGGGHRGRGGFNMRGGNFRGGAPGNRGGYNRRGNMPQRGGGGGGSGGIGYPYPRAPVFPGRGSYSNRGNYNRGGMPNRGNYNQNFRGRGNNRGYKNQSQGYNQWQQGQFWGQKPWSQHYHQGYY

Sequence of SAF-A^CtermΔ–GFP (Q00839 2-825, stated change not applied): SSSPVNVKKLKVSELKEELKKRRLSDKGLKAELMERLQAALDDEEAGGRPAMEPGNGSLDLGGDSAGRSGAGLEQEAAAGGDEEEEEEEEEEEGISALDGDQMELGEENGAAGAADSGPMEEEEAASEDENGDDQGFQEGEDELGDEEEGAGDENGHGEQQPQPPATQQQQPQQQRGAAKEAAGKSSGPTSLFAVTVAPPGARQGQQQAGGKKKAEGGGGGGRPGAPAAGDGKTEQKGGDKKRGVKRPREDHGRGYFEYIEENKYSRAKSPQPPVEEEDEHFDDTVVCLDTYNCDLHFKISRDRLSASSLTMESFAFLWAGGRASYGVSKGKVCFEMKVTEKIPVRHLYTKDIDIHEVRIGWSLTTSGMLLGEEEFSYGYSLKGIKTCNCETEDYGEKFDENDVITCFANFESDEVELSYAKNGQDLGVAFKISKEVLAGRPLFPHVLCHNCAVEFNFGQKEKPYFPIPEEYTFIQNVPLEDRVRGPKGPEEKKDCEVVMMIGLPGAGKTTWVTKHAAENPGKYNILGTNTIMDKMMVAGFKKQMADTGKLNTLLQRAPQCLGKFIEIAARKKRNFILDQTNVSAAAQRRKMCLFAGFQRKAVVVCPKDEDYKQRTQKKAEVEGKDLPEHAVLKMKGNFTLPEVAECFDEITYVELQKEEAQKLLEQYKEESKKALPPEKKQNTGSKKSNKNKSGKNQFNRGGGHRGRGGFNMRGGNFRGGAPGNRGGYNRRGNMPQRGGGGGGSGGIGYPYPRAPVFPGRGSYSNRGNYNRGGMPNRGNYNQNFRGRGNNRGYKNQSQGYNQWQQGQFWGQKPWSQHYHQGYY

**Q.** What does the source list for “histone H3 (from UniProt P68431 1-136) (natural protein)”?
**A.** fold reduction in histone H3 interaction relative to SAF-A^wt–GFP [1]: > 7 fold; fold reduction in histone H3 interaction relative to SAF-A^wt–GFP [2]: > 7 fold

From PMC7549315
